Laboratory results: patent publication US20070053894

Tests used:
[1] = biological target: T1, Soluble human recombinant p97 (melanotransferrin)
T1 chain: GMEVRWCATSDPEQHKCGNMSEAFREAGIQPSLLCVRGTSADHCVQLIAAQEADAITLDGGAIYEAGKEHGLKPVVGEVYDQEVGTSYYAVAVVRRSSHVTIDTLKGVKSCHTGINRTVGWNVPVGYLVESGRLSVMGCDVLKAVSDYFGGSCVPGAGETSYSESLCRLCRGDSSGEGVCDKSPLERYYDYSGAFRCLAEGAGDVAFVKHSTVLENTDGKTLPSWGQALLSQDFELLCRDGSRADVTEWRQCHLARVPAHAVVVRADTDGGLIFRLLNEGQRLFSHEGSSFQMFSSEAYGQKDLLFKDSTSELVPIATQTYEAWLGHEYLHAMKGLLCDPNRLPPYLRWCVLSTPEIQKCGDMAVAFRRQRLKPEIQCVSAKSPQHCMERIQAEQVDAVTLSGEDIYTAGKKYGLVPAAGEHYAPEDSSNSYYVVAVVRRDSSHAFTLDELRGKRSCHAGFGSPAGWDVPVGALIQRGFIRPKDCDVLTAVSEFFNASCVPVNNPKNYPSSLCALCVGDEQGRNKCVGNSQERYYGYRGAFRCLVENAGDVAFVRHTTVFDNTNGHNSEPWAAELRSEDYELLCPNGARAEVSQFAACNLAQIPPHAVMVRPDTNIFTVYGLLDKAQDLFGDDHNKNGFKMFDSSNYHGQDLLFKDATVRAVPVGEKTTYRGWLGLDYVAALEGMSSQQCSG

plasminogen, P00747 = biological target: T2, plasminogen, P00747
T2 chain: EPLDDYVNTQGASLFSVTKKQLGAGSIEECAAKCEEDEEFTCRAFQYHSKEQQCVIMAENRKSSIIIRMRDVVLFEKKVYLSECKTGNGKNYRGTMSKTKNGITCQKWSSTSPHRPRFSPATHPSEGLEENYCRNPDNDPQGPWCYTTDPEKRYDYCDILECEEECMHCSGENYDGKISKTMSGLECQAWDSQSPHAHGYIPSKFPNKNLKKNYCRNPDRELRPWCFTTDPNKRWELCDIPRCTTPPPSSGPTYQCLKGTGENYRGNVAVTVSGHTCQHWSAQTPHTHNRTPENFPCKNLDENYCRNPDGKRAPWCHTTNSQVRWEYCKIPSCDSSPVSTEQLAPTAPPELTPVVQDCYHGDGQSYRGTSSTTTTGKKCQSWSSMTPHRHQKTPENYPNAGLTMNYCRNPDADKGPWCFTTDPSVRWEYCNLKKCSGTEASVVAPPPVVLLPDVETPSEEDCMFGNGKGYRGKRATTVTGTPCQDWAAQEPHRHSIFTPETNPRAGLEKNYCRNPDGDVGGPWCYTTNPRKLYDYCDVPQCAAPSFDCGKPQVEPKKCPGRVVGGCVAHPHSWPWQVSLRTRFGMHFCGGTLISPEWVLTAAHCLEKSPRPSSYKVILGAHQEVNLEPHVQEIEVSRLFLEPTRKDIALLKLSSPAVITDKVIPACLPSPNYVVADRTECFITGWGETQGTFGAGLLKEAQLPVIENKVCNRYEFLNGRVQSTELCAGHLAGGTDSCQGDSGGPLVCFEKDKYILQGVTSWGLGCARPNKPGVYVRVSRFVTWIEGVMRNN

B1: tissue plasminogen activator (tPA) (protein)
chain: SYQVICRDEKTQMIYQQHQSWLRPVLRSNRVEYCWCNSGRAQCHSVPVKSCSEPRCFNGGTCQQALYFSDFVCQCPEGFAGKCCEIDTRATCYEDQGISYRGTWSTAESGAECTNWNSSALAQKPYSGRRPDAIRLGLGNHNYCRNPDRDSKPWCYVFKAGKYSSEFCSTPACSEGNSDCYFGNGSAYRGTHSLTESGASCLPWNSMILIGKVYTAQNPSAQALGLGKHNYCRNPDGDAKPWCHVLKNRRLTWEYCDVPSCSTCGLRQYSQPQFRIKGGLFADIASHPWQAAIFAKHRRSPGERFLCGGILISSCWILSAAHCFQERFPPHHLTVILGRTYRVVPGEEEQKFEVEKYIVHKEFDDDTYDNDIALLQLKSDSSRCAQESSVVRTVCLPPADLQLPDWTECELSGYGKHEALSPFYSERLKEAHVRLYPSSRCTSQHLLNRTVTDNMLCAGDTRSGGPQANLHDACQGDSGGPLVCLNDGRMTLVGIISWGLGCGQKDVPGVYTKVTNYLDWIRDNMRP
[1]
  VLK-pNA hydrolysis by 75 nM tPA with 70 nM p97, without plasminogen: Addition of p97 to tPA elicits no observable effect
plasminogen, P00747
  apparent Km of tPA for plasminogen, with 50 nM p97: decreases the apparent Km of tPA for plasminogen by 5-fold from 280 to 52 nM
  apparent Km of tPA for plasminogen, without p97: decreases the apparent Km of tPA for plasminogen by 5-fold from 280 to 52 nM
